Assay results from article PMC8012654.

Target: recombinant GST-αII spectrin peptide, codons 891-1231 (repeats 9 and 10), R1098Q (mouse) (UniProt P16546)
Test: SPR; BIAcore T200, CM5 chip; GST-spectrin peptides captured by their GST tag on amine-coupled goat anti-GST antibody to 1,000 RU; CaM 20 nM to 500 nM flowed in HBS running buffer with 2 mM CaCl2; 25 °C, 20 µl/min; global fit, 1:1 Langmuir model with mass transport step; KD = kd/ka

purified bovine brain calmodulin (CaM) (from UniProt P62157 1-149) (natural protein)
reduction in affinity for CaM relative to the WT peptide: 19%
